This experiment addresses Shaanxi2011 RBD (bat sarbecovirus Shaanxi2011). The experiment can be described thus: SPR.

pKd: −log10 of the molar value.

Among the data in article PMC11645210 are Kd, koff and kon values, retold here.

Take VIR-7229 Fab fragment: the pKd was 6.73, the koff came out at 0.00985 s⁻¹ and the on-rate (kon) worked out at 53500 M⁻¹ s⁻¹.
